In patent publication US6423503:

Molecular target: α1antichymotrypsin (ACT) (UniProt P01011)
Sequence (P01011 24-423): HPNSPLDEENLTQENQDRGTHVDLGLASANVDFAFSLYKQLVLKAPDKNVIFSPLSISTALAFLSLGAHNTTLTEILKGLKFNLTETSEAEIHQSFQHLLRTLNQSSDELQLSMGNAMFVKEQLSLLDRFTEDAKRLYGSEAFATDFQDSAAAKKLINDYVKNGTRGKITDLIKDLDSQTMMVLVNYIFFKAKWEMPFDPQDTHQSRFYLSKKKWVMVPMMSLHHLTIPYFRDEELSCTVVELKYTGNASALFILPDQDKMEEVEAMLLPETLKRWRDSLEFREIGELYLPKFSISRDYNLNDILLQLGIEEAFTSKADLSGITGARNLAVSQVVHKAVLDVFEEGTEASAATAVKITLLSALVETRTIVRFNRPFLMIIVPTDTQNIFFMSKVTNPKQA

prostate-specific antigen (PSA), mature form
cleavage of ACT (HIC-HPLC peak 1): Peak 1 is inactive ACT which has been cleaved by PSA
